The record followed here is US20220153832A1 (PIONYR IMMUNOTHERAPEUTICS, published 2022).

In general, EC50 (read off the curve) refers to the concentration at which the effect is half-maximal. In general, Kd refers to the constant that tells how readily two partners part at equilibrium. As usually defined, the EC50 is the concentration needed to bring the measured effect to its halfway point. As usually defined, the koff is the first-order rate constant of dissociation.

The target in experiment [1] is T1, N-terminally polyhistidine tagged human MARCO ECD (147-520), recombinant (human, UniProt Q9UEW3 147-520).
T1 construct: also called PI-RG-3000; recombinant human MARCO; not shown: N-terminal polyhistidine tag
T1 sequence: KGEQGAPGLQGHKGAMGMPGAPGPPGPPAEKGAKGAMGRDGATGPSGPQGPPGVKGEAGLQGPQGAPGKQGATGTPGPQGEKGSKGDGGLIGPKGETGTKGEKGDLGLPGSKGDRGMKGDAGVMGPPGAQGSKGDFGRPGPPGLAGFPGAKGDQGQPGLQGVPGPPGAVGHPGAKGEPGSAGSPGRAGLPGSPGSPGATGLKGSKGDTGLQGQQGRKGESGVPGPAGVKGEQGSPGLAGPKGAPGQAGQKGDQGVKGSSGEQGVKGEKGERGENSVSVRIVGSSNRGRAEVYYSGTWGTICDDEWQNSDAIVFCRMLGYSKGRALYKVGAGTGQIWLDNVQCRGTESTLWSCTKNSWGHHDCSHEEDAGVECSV
The experiment can be described thus: ELISA on hMARCO ECD with 2 mM Ca2+, A450-A620. (ELISA stands for enzyme-linked immunosorbent assay.)

Experiment [2] has as its target T1, N-terminally polyhistidine tagged human …. Nature of the experiment: ELISA on hMARCO ECD with 2 mM EDTA, A450-A620.
Experiment [3] has the same target. The experiment can be described thus: SPR, single cycle (sc). For orientation: SPR reads the build-up and loss of mass on a sensor chip optically.
Experiment [4] concerns the target T2, recombinant cynomolgus MARCO protein (cynomolgus, UniProt A0A2K5X0Z2 65-519).
T2 construct: Construct not described; also called cyno MARCO; cynoMARCO
T2 sequence: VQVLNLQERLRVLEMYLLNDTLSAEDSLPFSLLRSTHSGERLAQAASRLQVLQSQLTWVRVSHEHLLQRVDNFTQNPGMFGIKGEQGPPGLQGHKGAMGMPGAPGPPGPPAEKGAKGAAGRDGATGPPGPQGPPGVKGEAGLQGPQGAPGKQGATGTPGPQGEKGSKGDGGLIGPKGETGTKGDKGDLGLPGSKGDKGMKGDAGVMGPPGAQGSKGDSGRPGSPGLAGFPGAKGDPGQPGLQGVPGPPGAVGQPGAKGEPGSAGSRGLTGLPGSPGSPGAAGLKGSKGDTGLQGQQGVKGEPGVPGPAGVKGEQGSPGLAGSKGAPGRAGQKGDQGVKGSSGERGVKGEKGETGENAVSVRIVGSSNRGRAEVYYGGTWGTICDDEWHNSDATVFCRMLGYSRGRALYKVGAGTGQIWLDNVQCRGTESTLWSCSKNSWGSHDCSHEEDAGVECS
The experiment can be described thus: SPR, single cycle (sc).

In experiment [5] the target is T3, Cynomolgus MARCO, full length, on cells (cynomolgus, UniProt A0A2K5X0Z2 1-519).
T3 construct: whole, on cells; also called cyno MARCO; CyMARCO
T3 sequence: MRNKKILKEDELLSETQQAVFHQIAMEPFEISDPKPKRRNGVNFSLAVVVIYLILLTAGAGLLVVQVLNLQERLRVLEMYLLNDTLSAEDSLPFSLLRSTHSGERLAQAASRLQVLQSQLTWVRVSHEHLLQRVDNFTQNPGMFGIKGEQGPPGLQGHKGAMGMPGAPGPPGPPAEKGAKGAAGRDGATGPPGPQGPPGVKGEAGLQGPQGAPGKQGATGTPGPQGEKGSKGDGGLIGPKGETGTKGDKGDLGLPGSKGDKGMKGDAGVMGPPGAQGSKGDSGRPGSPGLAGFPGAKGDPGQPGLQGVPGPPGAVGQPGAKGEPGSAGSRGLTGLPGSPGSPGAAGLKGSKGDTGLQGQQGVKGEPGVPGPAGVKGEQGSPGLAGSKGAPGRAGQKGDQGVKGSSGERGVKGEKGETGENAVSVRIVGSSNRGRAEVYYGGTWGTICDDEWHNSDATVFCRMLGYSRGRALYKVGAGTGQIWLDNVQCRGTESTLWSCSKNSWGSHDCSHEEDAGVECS
Nature of the experiment: flow cytometry, cells overexpressing cyno MARCO. On the technique in general: In flow cytometry, cells or beads pass a laser one at a time.

Experiment [6] concerns the target T4, Human Macrophage Receptor with Collagenous Structure (MARCO), full length, on cells (human, UniProt Q9UEW3 1-520).
T4 construct: the cell type is named under assay; also called huMARCO; HuMARCO
T4 sequence: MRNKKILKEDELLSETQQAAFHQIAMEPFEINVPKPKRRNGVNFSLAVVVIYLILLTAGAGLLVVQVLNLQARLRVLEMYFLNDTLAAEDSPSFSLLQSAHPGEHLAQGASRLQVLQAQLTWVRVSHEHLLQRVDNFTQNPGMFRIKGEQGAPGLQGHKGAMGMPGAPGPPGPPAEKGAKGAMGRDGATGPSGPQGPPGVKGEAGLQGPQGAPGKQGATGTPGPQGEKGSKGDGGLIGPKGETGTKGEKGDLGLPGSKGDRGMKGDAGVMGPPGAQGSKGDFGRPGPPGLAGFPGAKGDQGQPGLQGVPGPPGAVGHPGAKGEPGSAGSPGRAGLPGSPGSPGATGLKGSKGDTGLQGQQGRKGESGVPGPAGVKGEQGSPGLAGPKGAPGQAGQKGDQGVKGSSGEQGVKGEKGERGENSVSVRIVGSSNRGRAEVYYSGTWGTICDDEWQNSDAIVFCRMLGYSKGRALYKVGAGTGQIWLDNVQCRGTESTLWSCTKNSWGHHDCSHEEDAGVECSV
Nature of the experiment: flow cytometry, cells overexpressing human MARCO.

For experiment [7], the target named is T4, Human Macrophage Receptor with …. Nature of the experiment: cell-based competition with AF488 E. coli binding to cells expressing MARCO. The procedure: Zombie NIR viability dye (BioLegend), prepared by diluting the stock 1000-fold in D-PBS, was added to the cells and incubated for 10 min at RT in the dark. The reaction was quenched by adding 1 m of 4× Staining buffer (2% FBS in DBPS containing Ca2+), followed by centrifugation at 400×g for 5 min at 4° C. Cells were then plated in V-shaped 96 well plates at a density of 100,000 cells. A488-fluorescently labeled bacteria (E. coli from Invitrogen) was added at 10 μg/ml with the anti-human MARCO antibodies of interest for a 30 min incubation at 37 C. Plates were then washed twice followed by resuspension in 100 ul of staining buffer for acquisition on the flow cytometer (Attune NxT, Life Technologies). Flow cytometry data were analyzed using FlowJo software (version 10.6.1) and data were processed and further analyzed in Microsoft Excel and GraphPad Prism software (version 8).

The target in experiment [8] is T1, N-terminally polyhistidine tagged human …. The experiment can be described thus: Biacore; sample stressed 40 C 2 week. The procedure:
Binding of the stressed samples to recombinant human MARCO was assessed by Biacore.

For experiment [9], the target named is T2, recombinant cynomolgus MARCO protein. Nature of the experiment: Biacore (SPR), recombinant cyno MARCO.
Experiment [10] has as its target T1, N-terminally polyhistidine tagged human …. The experiment can be described thus: Biacore (SPR), recombinant human MARCO. Put shortly: (§1)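 Antibodies were captured by anti-mouse Fc mAb amine-coupled to a CM4 chip (4500 RU target). Running buffer was 10 mM HEPES pH 7.4, 150 mM NaCl, 3 mM EDTA, 0.05% surfactant P20. Injections were at 0.625–10 nM with 90 s association and 600 s dissociation, and constants were fitted in BIAevaluation 3.1.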

Experiment [11] has the same target. The experiment can be described thus: Biacore (SPR), binding affinity to human MARCO. A digest of the protocol: as §1
Experiment [12] has the same target. The experiment can be described thus: Biacore, recombinant human MARCO; control sample.
The target is the same in experiment [13]. Nature of the experiment: Biacore; deamidation stress sample (40 C 2 week).
Experiment [14] shares this target. The experiment can be described thus: Biacore; isomerization/fragmentation stress sample.
The target in experiment [15] is T4, Human Macrophage Receptor with …. Nature of the experiment: flow cytometry, cells overexpressing human MARCO; hu (first of hu/cyn).
Experiment [16] deals with T3, Cynomolgus MARCO, full length, on cells. Nature of the experiment: flow cytometry, cells overexpressing cyno MARCO; cyn (second of hu/cyn).
Experiment [17] concerns the target T1, N-terminally polyhistidine tagged human …. Nature of the experiment: ELISA readout A450-A620; the panel names no target, the legend says MARCO expressing cells; stable transfection pools.
Experiment [18] shares this target. The experiment can be described thus: ELISA readout A450-A620; the panel names no target, the legend says MARCO expressing cells; transiently made reference antibody.

B1: PI-3032-AB (antibody, human IgG1, kappa, V domains shown)
VH: EVQLVESGGGLVQPGGSLRLSCAASKFTFSNYGMNWIRQAPGKGLEWIALIYYNSNNKYYADSVKGRFTISRDNSKNTLYLQMNSLRAEDTAVYYCAKSLTGGSDYFDSWGQGTLVTVSS
VL: DIQMTQSPSSLSASVGDRVTITCRASKSIGTFLAWYQQKPGKAPKLLIYSGSTLESGVPSRFSGSGSGTDFTLTISSLQPEDFATYYCQQHDEYPFTFGQGTKLEIKR
notes: calcium independent
Consider B1, for which the “EC50 (read off the curve)” value in experiment [1] is ~0.9 nM; in experiment [2], ~0.2 nM.

B2: PI-3012-AB (antibody, human IgG1, kappa, V domains shown)
VH: QVQLQESGPGLVKPSETLSLTCTVSGFSLTSYHVSWVRQPPGKGLEWIGAIWTGGSIAYNPSLKSRVTISRDTSKNQVSLKLSSVTAADTAVYYCARDLSDYYSSYTSFDYWGQGTLVTVSS
VL: DIQMTQSPSSLSASVGDRVTITCRASEGISNDLAWYQQKPGKAPKLLIYAASRLQSGVPSRFSGSGSGTDYTLTISSLQPEDFATYYCQQSYKYPLTFGQGTKLEIKR
For the molecule B2, the Kd in experiment [3] came to 1.13 nM; in [4], 0.735 nM. For the same molecule, the EC50 in experiment [5] was 1.4 nM; in experiment [6] it was 0.57 nM; in experiment [7], 0.12 nM.

B3: PI-3025-AB (antibody, human IgG1, kappa)
heavy: not shown
light: DIQMTQSPSSLSASVGDRVTITCRASEGISNDLAWYQQKPGKAPKLLIYAASRLQDGVPSRFSGSGSGTDYTLTISSLQPEDFATYYCQQSYKYPLTFGQGTKLEIKRTVAAPSVFIFPPSDEQLKSGTASVVCLLNNFYPREAKVQWKVDNALQSGNSQESVTEQDSKDSTYSLSSTLTLSKADYEKHKVYACEVTHQGLSSPVTKSFNRGEC
notes: also called PI-3025-AB2
On to B3, for which the Kd in experiment [8] came out at 0.58 nM; in [9] it was 1.79 nM; in [10], 1.09 nM; in experiment [11], 1.09 nM; in experiment [12] it was 0.54 nM; in experiment [13], 0.66 nM. The Kd in [14] was found to be 0.66 nM. The koff in experiment [10] was 0.00043 s⁻¹. Moreover, the “EC50 (read off the curve)” value in experiment [1] was ~1 nM; in experiment [17], ~0.2 nM; in experiment [18], ~0.2 nM. For the same molecule, the EC50 in experiment [15] amounted to 0.79 nM; in [16] it was 1.01 nM.

B4: PI-3041-AB (antibody, human IgG1, kappa)
heavy: not shown
light: DIQMTQSPSSLSASVGDRVTITCRASAGISNDLAWYQQKPGKAPKLLIYAASRLQDGVPSRFSGSGSGTDFTLTISSMQPEDFATYYCQQSYKYPWTFGQGTKLEIKRTVAAPSVFIFPPSDEQLKSGTASVVCLLNNFYPREAKVQWKVDNALQSGNSQESVTEQDSKDSTYSLSSTLTLSKADYEKHKVYACEVTHQGLSSPVTKSFNRGEC
notes: Humanized PI-HX-3011, hIgG1
Regarding B4, the Kd in experiment [8] is 0.36 nM; in experiment [9], 1.12 nM; in experiment [10] it was 0.82 nM; in experiment [11], 0.82 nM; in experiment [12], 0.24 nM; in experiment [13], 0.39 nM. Moreover, in experiment [14], the Kd came out at 0.34 nM. The koff in experiment [10] was found to be 0.000334 s⁻¹. Further, the “EC50 (read off the curve)” value in [1] is ~0.8 nM; in experiment [17], ~0.2 nM; in [18] it was ~0.2 nM. In addition, the values for the EC50 in experiment [15] and in [16] were 0.704 nM and 1.03 nM, respectively.
